The target in data set [1] is P450 2C1028 (modified human cytochrome P450 2C10 expressed in E. coli) (human) (UniProt P11712). As to conditions: scale: nmol product formed min^-1.
Data set [2] concerns the target P450 2C1029 (truncated human cytochrome P450 2C10 expressed in E. coli) (human) (UniProt P11712). As to conditions: scale: nmol product formed min^-1.
The target in data set [3] is P450 2C9/10 purified from human liver microsomes (human) (UniProt P11712). As to conditions: scale: nmol product formed min^-1.
For data set [4], the target named is recombinant human P450 2E1 (construct 2E1 #18) expressed in E. coli (human) (UniProt P05181). As to conditions: scale: nmol 6-hydroxychlorzoxazone formed min^-1.
Data set [5] has as its target recombinant human P450 1A2 (construct 1024) expressed in E. coli (human) (UniProt P05177).
Substrate in data set [6]: c1ccc2c(c1)cc1ccc3cccc4ccc2c1c34
The data set is described as follows: Benzo(a)pyrene 3-hydroxylation in P450 1A1 reconstituted system. In kind it is biochemical, human. As to conditions: other: 25 nM P450 1A1, 50 nM NADPH-cytochrome P450 reductase. On the procedure: (§1) FIG. 42. Substrate concentration-dependent benzo(a)pyrene 3-hydroxylation (A) and 7-ethoxyresorufin O-deethylation (B) in a P450 1A1 reconstutited system. Benzo(a)pyrene 3-hydroxylation were assayed with 25 nM P450 1A1 and 50 nM NADPH-cytochrome P450 reductase. 7-Ethoxyresorufin O-deethylation were assayed with 5 nM P450 1A1 and 10 nM NADPH-cytochrome P450 reductase.
(§2) 7-Ethoxyresorufin O-dealkylation (Burke and Mayer, Drug Metab. Dispos. 3:245-253 (1975); Burke and Mayer, Chem.-Biol. Interactions 45:243-258 (1983)) and benzo(a)pyrene 3-hydroxylation (Nebert and Gelboin, J. Biol. Chem. 243:6242-6249 (1968); Guengerich in Principles and Methods of Toxicology, Hayes, A. W., Ed., 777-814, Raven Press, New York (1989)) were determined as described elsewhere. Protein concentrations were estimated using a bicinchoninic acid (BCA) method according to the instructions supplied by the manufacturer (Pierce Chemical Co., Rockford, Ill.).
(§3) Catalytic activities. The purified P450 1A1 protein was examined for catalytic activities in a conventional reconstitution system containing rabbit NADPH-P450 reductase and L-α-1,2-dilauroyl-sn-glycero-3-phosphocholine. P450 1A1 catalyzed benzo(a)pyrene 3-hydroxylation and 7-ethoxyresorufin O-deethylation at rates of 1.7 and 6.2 nmol product formed min^-1 (nmol P450)^-1, respectively (FIGS. 41A,B). […]

Substrate in data set [7]: CCOc1ccc2nc3ccc(=O)cc-3oc2c1
Put plainly: 7-Ethoxyresorufin O-deethylation in P450 1A1 reconstituted system. The conditions noted are these: other: 5 nM P450 1A1, 10 nM NADPH-cytochrome P450 reductase. In kind it is biochemical, human. On the procedure:
as §1, §2, §3

We go through three molecules from US5886157A, “Expression and purification of human cytochrome P450” (Vanderbilt University, priority 1994, dated 1999).

Regarding “human liver cytochrome b5 (from UniProt P00167)”, the results for the tolbutamide hydroxylation, reconstituted system in data set [1], in data set [2] and in data set [3] were 0.57, 1.77 and 0.51, respectively. The chlorzoxazone 6-hydroxylation by purified P450 2E1 (Vmax) in data set [4] turned out to be 5.56.
“rabbit liver NADPH-P450 reductase (from UniProt P00389) (enzyme)”: the anaerobic reduction of P450 1A2 (rate of reduction, formation of the Fe2+.CO complex) in data set [5] is more than 3 min⁻¹.

B1: purified recombinant human cytochrome P450 1A1, N-terminally modified (construct #17, SEQ ID NO: 5), expressed in E. coli (Homo sapiens; L2A) (protein)
chain: AFPISMSATEFLLASVIFCLVFWVIRASRPQVPKGLKNPPGPWGWPLIGHMLTLGKNPHLALSRMSQQYGDVLQIRIGSTPVVVLSGLDTIRQALVRQGDDFKGRPDLYTFTLISNGQSMSFSPDSGPVWAARRRLAQNGLKSFSIASDPASSTSCYLEEHVSKEAEVLISTLQELMAGPGHFNPYRYVVVSVTNVICAICFGRRYDHNHQELLSLVNLNNNFGEVVGSGNPADFIPILRYLPNPSLNAFKDLNEKFYSFMQKMVKEHYKTFEKGHIRDITDSLIEHCQEKQLDENANVQLSDEKIINIVLDLFGAGFDTVTTAISWSLMYLVMNPRVQRKIQEELDTVIGRSRRPRLSDRSHLPYMEAFILETFRHSSFVPFTIPHSTTRDTSLKGFYIPKGRCVFVNQWQINHDQKLWVNPSEFLPERFLTPDGAIDKVLSEKVIIFGMGKRKCIGETIARWEVFLFLAILLQRVEFSVPLGVKVDMTPIYGLTMKHACCEHFQMQLRS
notes: made in house; host or cells: E. coli DH5α, vector pCW
Regarding B1, in data set [6], the Km (usually the substrate concentration at which the rate is half of its maximum) was 15 µM and the kcat was 2.5 nmol product formed min^-1 (nmol P450)^-1. Besides, in data set [7], the Km turned out to be 0.58 µM and the kcat is 8.3 nmol product formed min^-1 (nmol P450)^-1.
